According to patent US20240025984A1 (FLUX THERAPEUTICS, published 2024):

T1: SYNGAP1-nanoluc-alfa-tag-fusion
T1 chain: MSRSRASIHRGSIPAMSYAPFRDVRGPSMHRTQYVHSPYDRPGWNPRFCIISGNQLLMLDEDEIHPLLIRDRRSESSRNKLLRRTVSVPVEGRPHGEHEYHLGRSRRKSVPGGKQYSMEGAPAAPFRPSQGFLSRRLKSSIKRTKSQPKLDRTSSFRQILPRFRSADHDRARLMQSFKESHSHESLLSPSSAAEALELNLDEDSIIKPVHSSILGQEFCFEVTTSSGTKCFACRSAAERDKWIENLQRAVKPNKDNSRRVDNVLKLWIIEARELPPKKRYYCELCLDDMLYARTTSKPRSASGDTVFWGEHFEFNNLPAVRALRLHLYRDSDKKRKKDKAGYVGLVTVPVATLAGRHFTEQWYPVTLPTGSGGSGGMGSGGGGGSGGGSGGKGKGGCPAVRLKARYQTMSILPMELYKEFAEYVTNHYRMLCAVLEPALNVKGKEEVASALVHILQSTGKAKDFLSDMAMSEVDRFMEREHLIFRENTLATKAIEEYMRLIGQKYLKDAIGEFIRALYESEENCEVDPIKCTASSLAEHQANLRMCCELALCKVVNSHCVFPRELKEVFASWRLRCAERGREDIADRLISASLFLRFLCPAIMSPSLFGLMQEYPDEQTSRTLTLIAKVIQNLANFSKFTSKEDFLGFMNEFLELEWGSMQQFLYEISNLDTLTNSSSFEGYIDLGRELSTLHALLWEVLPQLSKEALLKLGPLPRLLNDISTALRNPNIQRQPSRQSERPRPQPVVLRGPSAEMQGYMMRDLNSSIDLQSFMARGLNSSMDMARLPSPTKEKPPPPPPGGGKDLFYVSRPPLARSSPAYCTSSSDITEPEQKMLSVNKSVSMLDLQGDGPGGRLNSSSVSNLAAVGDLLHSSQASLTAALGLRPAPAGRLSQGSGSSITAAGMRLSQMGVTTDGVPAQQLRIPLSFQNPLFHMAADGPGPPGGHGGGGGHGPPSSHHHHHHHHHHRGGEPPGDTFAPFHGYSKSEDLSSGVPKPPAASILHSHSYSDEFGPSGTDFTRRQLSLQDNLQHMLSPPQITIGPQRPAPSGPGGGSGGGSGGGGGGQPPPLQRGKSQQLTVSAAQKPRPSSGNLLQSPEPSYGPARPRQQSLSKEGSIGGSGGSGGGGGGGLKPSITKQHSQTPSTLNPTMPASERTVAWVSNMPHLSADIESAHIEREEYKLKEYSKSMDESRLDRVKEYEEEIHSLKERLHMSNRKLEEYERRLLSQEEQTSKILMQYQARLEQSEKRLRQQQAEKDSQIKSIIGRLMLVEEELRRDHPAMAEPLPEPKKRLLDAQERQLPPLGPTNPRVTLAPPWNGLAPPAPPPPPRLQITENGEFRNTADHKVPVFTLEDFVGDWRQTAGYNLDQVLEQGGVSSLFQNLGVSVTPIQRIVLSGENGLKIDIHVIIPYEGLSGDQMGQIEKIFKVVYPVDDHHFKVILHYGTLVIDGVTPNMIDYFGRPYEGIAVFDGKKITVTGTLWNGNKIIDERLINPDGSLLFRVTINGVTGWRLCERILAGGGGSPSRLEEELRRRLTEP


Molecular target: T1, SYNGAP1-nanoluc-alfa-tag-fusion
Assay: cell-based or functional assay

| Binder | increase in SYNGAP1 expression over the control [fold] |
| --- | --- |
| FireflyLuciferase-P2A-anti-syngap1_FLX00153-Cezanne (other) MEDAKNIKKGPAPFYPLEDGTAGEQLHKAMKRYALVPGTIAFTDAHIEVDITYAEYFEMSVRLAEAMKRYGLNTNHRIVVCSENSLQFFMPVLGALFIGVAVAPANDIYNERELLNSMGISQPTVVFVSKKGLQKILNVQKKLPIIQKIIIMDSKTDYQGFQSMYTFVTSHLPPGFNEYDFVPESFDRDKTIALIMNSSGSTGLPKGVALPHRTACVRFSHARDPIFGNQIIPDTAILSVVPFHHGFGMFTTLGYLICGFRVVLMYRFEEELFLRSLQDYKIQSALLVPTLFSFFAKSTLIDKYDLSNLHEIASGGAPLSKEVGEAVAKRFHLPGIRQGYGLTETTSAILITPEGDDKPGAVGKVVPFFEAKVVDLDTGKTLGVNQRGELCVRGPMIMSGYVNNPEATNALIDKDGWLHSGDIAYWDEDEHFFIVDRLKSLIKYKGYQVAPAELESILLQHPNIFDAGVAGLPDDDAGELPAAVVVLEHGKTMTEKEIVDYVASQVTTAKKLRGGVVFVDEVPKGLTGKLDARKIREILIKAKKGGKIAVTRLKGSGATNFSLLKQAGDVEENPGPRSGTGSSGQLQLVESGGGLVQPGESLRLSCAASGFTFSNYRMYWVRMAPGKGLEWVSDIDRSGTYTYYADSVKGRFAISRDNAKNTVYLQMNSLKPEDTAVYYCAADRRLIVDLTPEVYDHWGQGTQVTVSSGAPGSGPPSFSEGSGGSRTPEKGFSDREPTRPPRPILQRQDDIVQEKRLSRGISHASSSIVSLARSHVSSNGGGGGSNEHPLEMPICAFQLPDLTVYNEDFRSFIERDLIEQSMLVALEQAGRLNWWVSVDPTSQRLLPLATTGDGNCLLHAASLGMWGFHDRDLMLRKALYALMEKGVEKEALKRRWRWQQTQQNKESGLVYTEDEWQKEWNELIKLASSEPRMHLGTNGANCGGVESSEEPVYESLEEFHVFVLAHVLRRPIVVVADTMLRDSGGEAFAPIPFGGIYLPLEVPASQCHRSPLVLAYDQAHFSALVSMEQKENTKEQAVIPLTDSEYKLLPLHFAVDPGKGWEWGKDDSDNVRLASVILSLEVKLHLLHSYMNVKWIPLSSDAQAPLAQ | ≥ 2 |
| FireflyLuciferase-P2A-anti-syngap1_FLX00152-Cezanne (other) MEDAKNIKKGPAPFYPLEDGTAGEQLHKAMKRYALVPGTIAFTDAHIEVDITYAEYFEMSVRLAEAMKRYGLNTNHRIVVCSENSLQFFMPVLGALFIGVAVAPANDIYNERELLNSMGISQPTVVFVSKKGLQKILNVQKKLPIIQKIIIMDSKTDYQGFQSMYTFVTSHLPPGFNEYDFVPESFDRDKTIALIMNSSGSTGLPKGVALPHRTACVRFSHARDPIFGNQIIPDTAILSVVPFHHGFGMFTTLGYLICGFRVVLMYRFEEELFLRSLQDYKIQSALLVPTLFSFFAKSTLIDKYDLSNLHEIASGGAPLSKEVGEAVAKRFHLPGIRQGYGLTETTSAILITPEGDDKPGAVGKVVPFFEAKVVDLDTGKTLGVNQRGELCVRGPMIMSGYVNNPEATNALIDKDGWLHSGDIAYWDEDEHFFIVDRLKSLIKYKGYQVAPAELESILLQHPNIFDAGVAGLPDDDAGELPAAVVVLEHGKTMTEKEIVDYVASQVTTAKKLRGGVVFVDEVPKGLTGKLDARKIREILIKAKKGGKIAVTRLKGSGATNFSLLKQAGDVEENPGPRSGTGSSGQVQLVESGGGLVQPGGSLRLSCAASGFSFSNFPMMWVRQAPGKGREWVADINQDGRNTYYADSVKGRFTISRDNAKTTVYLQMNNLNPEDTAVYYCQAIRTTTHFDSWGQGTQVTVSSGAPGSGPPSFSEGSGGSRTPEKGFSDREPTRPPRPILQRQDDIVQEKRLSRGISHASSSIVSLARSHVSSNGGGGGSNEHPLEMPICAFQLPDLTVYNEDFRSFIERDLIEQSMLVALEQAGRLNWWVSVDPTSQRLLPLATTGDGNCLLHAASLGMWGFHDRDLMLRKALYALMEKGVEKEALKRRWRWQQTQQNKESGLVYTEDEWQKEWNELIKLASSEPRMHLGTNGANCGGVESSEEPVYESLEEFHVFVLAHVLRRPIVVVADTMLRDSGGEAFAPIPFGGIYLPLEVPASQCHRSPLVLAYDQAHFSALVSMEQKENTKEQAVIPLTDSEYKLLPLHFAVDPGKGWEWGKDDSDNVRLASVILSLEVKLHLLHSYMNVKWIPLSSDAQAPLAQ | ≥ 2 |
| FireflyLuciferase-P2A-anti-syngap1_FLX00157-Cezanne (other) MEDAKNIKKGPAPFYPLEDGTAGEQLHKAMKRYALVPGTIAFTDAHIEVDITYAEYFEMSVRLAEAMKRYGLNTNHRIVVCSENSLQFFMPVLGALFIGVAVAPANDIYNERELLNSMGISQPTVVFVSKKGLQKILNVQKKLPIIQKIIIMDSKTDYQGFQSMYTFVTSHLPPGFNEYDFVPESFDRDKTIALIMNSSGSTGLPKGVALPHRTACVRFSHARDPIFGNQIIPDTAILSVVPFHHGFGMFTTLGYLICGFRVVLMYRFEEELFLRSLQDYKIQSALLVPTLFSFFAKSTLIDKYDLSNLHEIASGGAPLSKEVGEAVAKRFHLPGIRQGYGLTETTSAILITPEGDDKPGAVGKVVPFFEAKVVDLDTGKTLGVNQRGELCVRGPMIMSGYVNNPEATNALIDKDGWLHSGDIAYWDEDEHFFIVDRLKSLIKYKGYQVAPAELESILLQHPNIFDAGVAGLPDDDAGELPAAVVVLEHGKTMTEKEIVDYVASQVTTAKKLRGGVVFVDEVPKGLTGKLDARKIREILIKAKKGGKIAVTRLKGSGATNFSLLKQAGDVEENPGPRSGTGSSGQVQLVESGGGLVQAGASLRLSCAASERTFGHYAMGWFRQAPGKEREFVATISWKGGTTGYAHSVKGRFTISRDSAKNMVYLQMNSLKPEDTAVYYCAARNTMSGSMSSSAYPYWGQGTQVTVSSGGGGSGGGGSGGGGSGGGGSQVQLVESGGGLVQAGASLRLSCAASERTFGHYAMGWFRQAPGKEREFVATISWKGGTTGYAHSVKGRFTISRDSAKNMVYLQMNSLKPEDTAVYYCAARNTMSGSMSSSAYPYWGQGTQVTVSSGAPGSGPPSFSEGSGGSRTPEKGFSDREPTRPPRPILQRQDDIVQEKRLSRGISHASSSIVSLARSHVSSNGGGGGSNEHPLEMPICAFQLPDLTVYNEDFRSFIERDLIEQSMLVALEQAGRLNWWVSVDPTSQRLLPLATTGDGNCLLHAASLGMWGFHDRDLMLRKALYALMEKGVEKEALKRRWRWQQTQQNKESGLVYTEDEWQKEWNELIKLASSEPRMHLGTNGANCGGVESSEEPVYESLEEFHVFVLAHVLRRPIVVVADTMLRDSGGEAFAPIPFGGIYLPLEVPASQCHRSPLVLAYDQAHFSALVSMEQKENTKEQAVIPLTDSEYKLLPLHFAVDPGKGWEWGKDDSDNVRLASVILSLEVKLHLLHSYMNVKWIPLSSDAQAPLAQ | ≥ 2 |
